{"source": "paper PMC7327021", "target": "CTD1, C-terminal domain of major ampullate spidroin 1 of Latrodectus hesperus (Latrodectus hesperus)", "assay": "non-reducing SDS-PAGE; non-reducing SDS-PAGE of fractions of the Ni-IMAC purification of CTD1; disulphide-linked dimer", "data": [{"substance": "CTD1, C-terminal domain of major ampullate spidroin 1 of Latrodectus hesperus (domain or fragment)", "values": [{"measurement": "stoichiometry N", "value": 2}]}]}
